According to patent US20050142141A1 (University of California, published 2005):
Numbering of substitutions follows the chain as printed. Values belong to the binder of their own block, whether it stands above or below them.

Target: T1, soluble extracellular domain (ECD) of the human insulin receptor (human, UniProt P06213 28-956, limits assumed)
T1 construct: extracellular domain; also called HIR ECD; extracellular domain of the HIR
Test: immunoradiometric assay (IRMA) on HIR ECD with [125I]-murine 83-14 MAb as ligand
Text: In the IRMA, the antigen was the extracellular domain of the HIR, which was produced from transfected CHO cells and purified by lectin affinity chromatography of CHO cell conditioned medium.

Kd: 2.7 nM
B1: murine 83-14 HIRMAb (antibody, V domains shown)
VH: QVQLQESGPELVKPGALVKISCKASGYTFTNYDIHWVKQRPGQGLEWIGWIYPGDGSTKYNEKFKGKATLTADKSSSTAYMHLSSLTSEKSAVYFCAREWAYWGQGTLVTVSA
VL: DIQMTQSPSSLSASLGERVSLTCRASQDIGGNLYWLQQGPDGTIKRLIYATSSLDSGVPKRFSGSRSGSDYSLTISSLESEDFVDYYCLQYSSSPWTFGGGTKMEIKR
notes: Intact murine IgG from the 83-14 hybridoma; the murine constant regions and isotype are not; also called HIRMAb 83-14; MAb 83-14

Kd: 3.7 nM
B2: Version 5 humanized HIRMAb (antibody, human IgG1, V domains shown)
VH: B1 VH with Q5L, P9A, K13R, A16S, L17S, L108T
VL: DIQMTQSPSSLSASVGERVTITCRASQDIGGNLYWYQQKPGKAPKLLIYATSSLDSGVPSRFSGSGSGTDYTFTISSLQPEDIATYYCLQYSSSPWTFGQGTKVEIKR
notes: also called version 5 HIRMAb; Version 5 humanized 83-14 HIRMAb
